Test results taken from a protein production outcome set (Wang et al. 2014).

Experiment: label from the status in PepcDB records
With “MSCTGFWRKLASGEECGAAARLLGAVLAIPAALYGLVVRLRALAYARGLSTVRHLDRPVISVGNLTVGGTGKTPMVAYLARRLMARGKRVAVISRGYGGSLEGETRIVSDGRTIVLSAAEAGDEPVHLATSVPGLMTVIGTDRYTAGLLALEQLDPDVFILDDGYQHLRLHRDLNILLMDCNRPLGNGRTLPAGLLREPQTAVRRADLVVYTRCTGGKAPAVHGMIPSCRAGHALTGAALLPDGEVQPLAALRGLRGVACAGIAEPEGFFDALRREGLDIVAAIPFADHASYGEREVSTLREAAAGADYLITTGKDGVKLSAHLARLLPVYATVLEMRPLDPAPLEAALDKVL” the protein production was “failed”. For “MSDAHVLKSRLEWGEPAFTILDVRDRSTYNDGHIMGAMAMPIEDLVDRASSSLEKSRDIYVYGAGDEQTSQAVNLLRSAGFEHVSELKGGLAAWKAIGGPTEGIIESRLEHHHHHH”, the protein production was “failed”. For “MSDARAWDSPDDAHRLIAKALAELVAEDPTIPPHPYLSRHLAQHAARGRVLDDTHVPLAILPWESSRNVRILLRQTGATQQQDWLEAWAGIEPFVRDADPDSRLTSLHLAHHTATCRRLSLTARPVSERRLAGSRITPLWSDWTAPDNVLAVSDTLVESLAHTTTAPGRTLLISGDSHGTIRMWEANGTPAGAPLHTHGGAIQHLLPLQHDLLVSGGTDGAVRVWHSTRGQQLVEPVRRPHTWVSALALFEPADGARFLLVAHSDGHLTALDPVTFEPADTPLPALDPAPAILTPLATADGTALVIAQGRRVVVWRPGRGVVHISEHQGEVRAVVALPSGGRYAVCDDSGYLGFWDVSTGHETVAAGPAHDGPVIALTTLAVDGRQTVVSAGLDHTLRVWDADTGRPVGGALEGHTDPPVALTTLPGEGQELVVSAAADHTLRRWKLAGHGTRPRRPVRRPVTAAALPGPTVVPALLAAVADGAGTALWNVRTGRHVSLPAGEPPVTAFAWATVHGDPVLLTAHSDAAVRLWSLYAGNAVTPSLRGTLLNHSLPVQAMTAFPHAGATLLATGGADGSVRLWHLGDRLELAHWDDHALSVRDVTLLGTGEDALIVSAGSDGTVRLWDPGTRRASGGPVHCGQQVVHAVTTVAPHPDEAALIASGGEDGTVRLWDPTTRQPVGDPLDARDGAVTALASFHTPAGRPCLAAAGPSGTIHLWDVAARTHLLRIVTGNPLSTLAARQTGEPFTEHPVLLAAGTAGVCMFDVRLERLR”, the protein production was “failed”. With “MSDAVEEAEARAVEPVGAKQRDAFISYSQSKNAPLAKQLQRGLERLAVSRFRPMRMSVFRDVTSLPANHDLWQSIQRELARSRYFILLASPEAAASPWVAREVDYWLRERDTEHLLIAVASGEIVWDDRAGDFDWRKTTSLPRNLAGHFTAAPLWVDLREIGERSHHSMRYPPFRAAVATLASPLHGRPKEELEHDDFRQLRFVKRLSWSGVALLVALLVLAVYGFFDASRQREAALSQARTSASQALAARSGQLLGTSPNQAAQYALYAEETRSTPESRRALAQAVTAAPYARRRLRADADSVTDMQGASRPAATDVVLSGDGTTAAYRSVFDDDRAVRLYDVPSARQSRVVRAEGTPRALSRDGRVLAMEVYLNRVQLWDTRSGRLLSTMATGHTENLPHVGHGLHALALSPDGRWVAASHYTPEGEAFAVVWRASDGREITRVPVSDARVGLGFSADGSRLTLVDQDRREVREFRTDSARWEAARSLPGMPGSTAEALRYSEVLLFDGARKALTRTSERAEVWDLEQRRRIAVRSLGPYEDMTVADDKGIFLLGGQDGTVRLYDAALRPGTTLGRLTRPASTIAMSADGTQVVVASYGGELNLFTTGVRRGQQVAFDEKDFTFGDLTPDGRMAVHRSEGRTEFWDPATGRRLGVIPYANLSVNLEDTAYTLSGDKRYVGMQSVEGFEDEGRFDVWDLRTGRRTDCGTAVGGSSFSPIRRPGLSFLPGDRYVVGEWNGAVELLDTRTCTRSTVTEDSGRFALSGDRRTLVLLNDDGVDTWRWDGDHAFARAARTTLPSEAHPVDMSVDHEGRQAAFSDRESHVYVVRLDSGERVRATGYLPDKTDAVAFSRDGRLLFQGFMTESTRGVRVLDAGSGDQLDIWTTDPPTGSVQPNEGMQVVPGPADDILTLGPDHKVVRRTVGVGAWHDLLCGLVSQPLPARERDRYLKDLDVEDPCR” the protein production was “failed”. In the case of “MSDDNSHSSDTVNSKKGFFSLLLSQLFHGEPKNRDELLALIRDSGQNELIDEDTRDMLEGVMDIADQRVRDIMIPRSQMITLKRNQTLDECLDVIIESAHSRFPVISEDKDHIEGILMAKDLLPFMRSDAEAFSMDKVLRTAVVVPESKRVDRMLKEFRSQRYHMAIVIDEFGGVSGLVTIEDILELIVGEIEDEYDEEDDIDFRQLSRHTWTIRALASIEDFNDAFGTHFSDEEVDTIGGLVMQAFGHLPARGETIDIDGYQFKVAMADSRRIIQVHVRIPDDSPQPKLDE”, the protein production is reported as “not failed”. With “MSDEWIKIFESDFYVREMIKVWDEGEKWANWIDEVVSKYKLEKKVLDIPCGIGRVSYFLANRGYKVTGIDISERMISMARSNIQNGKFIVGDMRKIKEIIGNEKYDLVINIYNSLGYYSEEDDLKILESLRDSTRKIVVINLDNRDYIIYNRPNEYYTYIPPYLVYSKVEFEQETSRLKIYRKYYLNDKEVGEMIYEQRLYSIHEILALLKKAGLQPIEVLSGYSWKKFSIMDPEMTIIATPA” the protein production was “failed”. For “MSDFNLVGVIRVMPTDPDVNLDELEEKLKKVIPEKYGLAKVEREPIAFGLVALKFYVLGRDEEGYSFDEVAEKFEEVENVESAEVETVSRI”, the protein production was “not failed”. In the case of “MSDFVNGFWSYFIGIIAIGGIVWCVWLLYSQRRWLSTRPAGGVVEDTGHVWDGDLTELNNPVPRWWTWMYLLTCVFALGYLVLFPGVGSYQGTLGYTSVGEVKQKQAELAERVKPVYERFGGMTPEQLVADAPAREIGQRLFLNTCAQCHGSDAKGSTSFPNLTDGDWLYGGTPEIIAETIAKGRHGVMPPWKGVIDPRMAGDIAHYVRSLSGLAVDPVRVFRGKREFANYCVACHGVDAKGNQALGAPNLTDDVWLYGSSEASIVRTILDGRDNRMPAHEEVLTPEQIKLLSAWVWGLSNQAPAKAAEAAR”, the protein production is reported as “failed”. For “MSDGIPFAGEPADSHEAIMRATFRALREYGYAGLSIQRIADEADLSKSTFYHHFDGKEDLLLSFQEFILTEFNRIFQIESTGDPEQDIKTFVSLILDDFPDCVETPTKNAVLGSYVEMRAQAVQNPDFREKFTETDELFARQLVQIIEDGIEQGVFADVDPDTVSRFMITILDGVILQSATRNDNPVAEVRDTIDEYIEETLILNT”, the protein production was “failed”. In the case of “MSDHEVTGGVSLKERVAIVLVEPQSPGNVGMVCRAMKNMGLGELRIVKGCRLDHPEALKFAVSARDLLERARVFESLEDALSDTELSVATTRRHGKYRQEIFSPKEIVSKFAANLAGNRAALVFGREDNGLTTDELSLCRWHATIPSSEEYGSLNLAQAVMVFCYELFTSLGSRTVGGEDRPLAGSAETEPLFEHMERTLMRIGYLNPQNPAHLMRSLRRIFARSELDSREVAILRGMMTQIDWAADQFKGKKGA”, the protein production is reported as “failed”. With “MSDHFSIIKFDIGNSTMNAERKFLFACLIFALAIYAIHAFGLFDLLTDLPHLQTLIRQSGLFGYSLYILLFIIATLFLLPGSILVIAGGIVFGPFLGTLLSLIAATLASSCSFLLARWMGRDLLLKYVGHSHTFQAIEKGIARNGIDFLILTRLIPLFPYNIQNYAYGLTTIAFWPYTLISALTTLPGIVIYTVMASDLANEGITLRFILQLCLAGLALFILVQLAKLYARHKHVDLSASRRNPLTHPKNEG” the protein production was “failed”. For “MSDHKAVHSVQAKAEGKTLVMERSFEAPRELVFKAFSGSVHLESWWGPKGWQTANSRFEFQPDGVWLYCMECRDQNQGEFYGRKSCGKAVFQEIAAPEKIVYTDMFTDEEGNVVPGMPEILNEVYFQERDVGTKLITRSHFSSPKELQQLLDKGMVEGFSSQLERLEDYLKAIR”, the protein production was “failed”. In the case of “MSDIRMRADIAADGLTDRPPDRLADEPAEELSHGLLEGLSKEPADELADSPFLLDEPPDYFEDFLLFIFTLMKTTSCLGVAKTTHKLFLCVEPTKEKVAFSDKATSFSAPIEILLFNLDPPSIQGYLRRPLSLKDLHISSARIIDAPLLKPNG”, the protein production is reported as “failed”. In the case of “MSDKFHILLLNGPNLNLLGTREPEKYGYTTLAEIVSQLEIQAQGMDVALSHLQSNAEHALIDSIHQARGNTDFILINPAAFTHTSVALRDALLGVQIPFIEIHLSNVHAREPFRHHSYLSDIAVGVICGLGADGYNFALQAAVNRLSKSN”, the protein production is reported as “not failed”. For “MSDNNDRMYELEYPSPEVSGQTAGGPTLIVALQGYADAGHAVESSSSHLMDALDHRLIASFNNDELIDYRSRRPVVVIEHNEVTSMDELNLGLHVVRDNDNKPFLMLSGPEPDLRWGDFSNAVVDLVEKFGVENTICLYAAPMTVPHTRPTVVTAHGNSTDRLKDQVSLDTRMTVPGSASLMLEKLLKDKGKNVSGYTVHVPHYVSASPYPAATLKLLQSIADSADLNLPLLALERDAEKVHRQLMEQTEESSEIQRVVGALEQQYDSE”, the protein production was “not failed”. With “MSDPAEVPTASPLLETVGLACERDWRMLFERLDLRLAAGEMLQVVGPNGSGKTSLLRLLSGLMQPTAGEVRLNGRPLAEQRGELARSLLWIGHAAGIKGLLSAEENLTWLCALHQPASREAIWQALADVGLRGFEDVPCHTLSAGQQRRVALARLYLDAPPLWILDEPFTALDKQGVAQLETHLAGHCQRGGMVVLTTHHSLQQVPAGYRELDLGALKAASGATVEPALGDPA” the protein production was “failed”. With “MSDRDSWISNLGFVLAAVGGAAGLGNIWRFPWLTAGNGGSAFLIVYLLVVVGIGVPGLLAEFVLGRCGRQTPTAALRSLTGSRWGSWLGAFNVLTTLVILSFYSVVGGWILRYTLVSPVGTYFGQPQQYFGAMSFGLEAVAFHLLFLGIVAAIVFFGISNGIERVSKVMLPGVVIILLGLAVWTATQPGTAAGYAFYLSFDAEYLAANFLSVIGPAAGQALFTLSLGAGVMLTYASYLDDNASLPRDTLVIAVSNTFIGVLAGLVVIPLLFSQGVDPGQGGPGALFVALATAFATLPGGELVATAFFVTVLMAAVTSGISLLETPVATLVDSFGVPRRRATVLVSVLLAATGSGLALTSSVFQFVSGTLADLMLTVGLFAFTVIVGWLLRGDALAEFRAGTARFEWLAKPWLLTVSWVLPVVVLFLLTNTLASLAGISVGLGGRVIIAVIGTVALAVVVRNGSRTDRLSSH” the protein production was “failed”. With “MSDRIASEKLRSKLMSADEAAQFVNHGDKVGFSGFTGAGYPKALPTAIANRAKEAHGAGNDYAIDLFTGASTAPDCDGVLAEADAIRWRMPYASDPIMRNKINSGSMGYSDIHLSHSGQQVEEGFFGQLNVAVIEITRITEEGYIIPSSSVGNNVEWLNAAEKVILEVNSWQSEDLEGMHDIWSVPALPNRIAVPINKPGDRIGKTYIEFDTDKVVAVVETNTADRNAPFKPVDDISKKIAGNFLDFLESEVAAGRLSYDGYIMQSGVGNVPNAVMAGLLESKFENIQAYTEVIQDGMVDLIDAGKMTVASATSFSLSPEYAEKMNNEAKRYRESIILRPQQISNHPEVIRRVGLIATNGLIEADIYGNVNSTNVSGSRVMNGIGGSGDFTRNGYISSFITPSEAKGGAISAIVPFASHIDHTEHDVMVVISEYGYADLRGLAPRERVAKMIGLAHPDYRPLLEEYYARATSGDNKYMQTPHDLATAFDFHINLAKNGSMKA” the protein production was “not failed”. In the case of “MSDSAEMQQPELLLKSMNKLNGYHPQLIIPKKTLFKCDLDDKQSRLQVSSMHMENSGFLTEDEKRTIEAQKMKKRRTAGLRVAFIDPESQQYVLELHKWTKSYAFVKGWNKVVDKNDKTFKVGDVFSLWVFRCGGVNPVHDGVNLSGGHADSVVDGLEQGSLCFVLVPAKVSVHDGNLPQDSGHDGHNDNLPQDSVEPSSFFDESYELNHLFFDQEDSQGYLPDEDEDFGFNDDGSIRDSGHYQ”, the protein production is reported as “failed”.
